According to patent US6348327:
Changes are numbered by the printed parent chain.

T1: prorelaxin mutant Rx8.6, P04090
T1 chain: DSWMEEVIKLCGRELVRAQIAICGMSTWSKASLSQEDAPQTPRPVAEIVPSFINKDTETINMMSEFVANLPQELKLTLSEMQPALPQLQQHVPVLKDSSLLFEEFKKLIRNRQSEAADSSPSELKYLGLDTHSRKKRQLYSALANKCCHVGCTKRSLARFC

T2: prorelaxin mutant Rx 1.4, P04090
T2 chain: T1 chain with A31R, R134V

T3: prorelaxin mutant Rx 4.3, P04090
T3 chain: T1 chain with A31R, K136R, R137A

T4: prorelaxin mutant Rx 2.4, P04090
T4 chain: T1 chain with A31R, K135A

T5: prorelaxin mutant Rx7.2, P04090
T5 chain: T1 chain with K30A, A31R

T6: prorelaxin mutant Rx 3.2, P04090
T6 chain: T1 chain with A31R, K136A

T7: human H2 prorelaxin (wild-type), P04090
T7 chain: T1 chain with A31R

B1: murine prohormone convertase 1 (protein)
chain: SVQKDSALDLFNDPMWNQQWYLQDTRMTAALPKLDLHVIPVWEKGITGKGVVITVLDDGLEWNHTDIYANYDPEASYDFNDNDHDPFPRYDLTNENKHGTRCAGEIAMQANNHKCGVGVAYNSKVGGIRMLDGIVTDAIEASSIGFNPGHVDIYSASWGPNDDGKTVEGPGRLAQKAFEYGVKQGRQGKGSIFVWASGNGGRQGDNCDCDGYTDSIYTISISSASQQGLSPWYAEKCSSTLATSYSSGDYTDQRITSADLHNDCTETHTGTSASAPLAAGIFALALEANPNLTWRDMQHLVVWTSEYDPLASNPGWKKNGAGLMVNSRFGFGLLNAKALVDLADPRTWRNVPEKKECVVKDNNFEPRALKANGEVIVEIPTRACEGQENAIKSLEHVQFEATIEYSRRGDLHVTLTSAVGTSTVLLAERERDTSPNGFKNWDFMSVHTWGENPVGTWTLKITDMSGRMQNEGRIVNWKLILHGTSSQPEHMKQPRVYTSYNTVQNDRRGVEKMVNVVEKRPTQKSLNGNLLVPKNSSSSNVEGRRDEQVQGTPSKAMLRLLQSAFSKNALSKQSPKKSPSAKLSIPYESFYEALEKLNKPSKLEGSEDSLYSDYVDVFYNTKPYKHRDDRLLQALMDILNEEN
B2: murine prohormone convertase 2 (protein)
chain: GYRDINEIDINMNDPLFTKQWYLFNTGQADGTPGLDLNVAEAWELGYTGKGVTIGIMDDGIDYLHPDLAYNYNADASYDFSSNDPYPYPRYTDDWFNSHGTRCAGEVSAAASNNICGVGVAYNSKVAGIRMLDQPFMTDIIEASSISHMPQLIDIYSASWGPTDNGKTVDGPRELTLQAMADGVNKGRGGKGSIYVWASGDGGSYDDCNCDGYASSMWTISINSAINDGRTALYDESCSSTLASTFSNGRKRNPEAGVATTDLYGNCTLRHSGTSAAAPEAAGVFALALEANLDLTWRDMQHLTVLTSKRNQLHDEVHQWRRNGVGLEFNHLFGYGVLDAGAMVKMAKDWKTVPERFHCVGGSVQNPEKIPPTGKLVLTLKTNACEGKENFVRYLEHVQAVITVNATRRGDLNINMTSPMGTKSILLSRRPRDDDSKVGFDKWPFMTTHTWGEDARGTWTLELGFVGSAPQKGLLKEWTLMLHGTQSAPYIDQVVRDYQSKLAMSKKQELEEELDEAVERSLQSILRKN

Experiments:
[1] = molecular target: T1, prorelaxin mutant Rx8.6, P04090
[2] = molecular target: T2, prorelaxin mutant Rx 1.4, P04090
[3] = molecular target: T3, prorelaxin mutant Rx 4.3, P04090
[4] = molecular target: T4, prorelaxin mutant Rx 2.4, P04090
[5] = molecular target: T5, prorelaxin mutant Rx7.2, P04090
[6] = molecular target: T6, prorelaxin mutant Rx 3.2, P04090
[7] = molecular target: T7, human H2 prorelaxin (wild-type), P04090

Row | Protein | processing of prorelaxin mutant by murine prohormone convertase 1 [1] | processing of prorelaxin mutant by murine prohormone convertase 1 [2] | processing of prorelaxin mutant by murine prohormone convertase 1 [3] | processing of prorelaxin mutant by murine prohormone convertase 1 [4] | processing of prorelaxin mutant by murine prohormone convertase 1 [5] | processing of prorelaxin mutant by murine prohormone convertase 1 [6] | cleavage of prorelaxin mutant by murine prohormone convertase 2 [1] | cleavage of prorelaxin mutant by murine prohormone convertase 2 [2] | cleavage of prorelaxin mutant by murine prohormone convertase 2 [3] | cleavage of prorelaxin mutant by murine prohormone convertase 2 [4] | cleavage of prorelaxin by murine prohormone convertase 2 [7] | cleavage of prorelaxin mutant by murine prohormone convertase 2 [5] | cleavage of prorelaxin mutant by murine prohormone convertase 2 [6]
1 | B1 | mutants 7.2 and 8.6 are not processed | Mutants 1.4 and 2.4 are processed the same as wild-type | Mutant 4.3 doesn't appear to be processed | Mutants 1.4 and 2.4 are processed the same as wild-type | mutants 7.2 and 8.6 are not processed | mutant 3.2 is partially processed |  |  |  |  |  |  | 
2 | B2 |  |  |  |  |  |  | does not cleave any of the prorelaxin mutants with the exception of 4.3 | does not cleave any of the prorelaxin mutants with the exception of 4.3 | with the exception of 4.3 where there is some processing | does not cleave any of the prorelaxin mutants with the exception of 4.3 | Murine prohormone convertase 2 does not cleave the wildtype prorelaxin | Mutant 7.2 is not cleaved by murine prohormone convertase 2 | does not cleave any of the prorelaxin mutants with the exception of 4.3
